The results in this text go back to article PMC8517210, “Structural and DNA-binding properties of the cytoplasmic domain of Vibrio cholerae transcription factor ToxR”.

Settings in all cases: protein: recombinant; tags: N-terminal His6; chain copies: 2; none in NMR; blunt
Data set [1] addresses T1, cToxR_1-134 (Vibrio cholerae, UniProt P15795 1-134). In words: NMR CSP titration; mean as printed; T111 28.26 ± 5.73, L99 27.88 ± 3.01.
Data set [2] has as its target T1, cToxR_1-134. The data set can be described thus: fluorescence anisotropy. In general terms: In fluorescence polarisation assays a small probe gives low polarisation when free and higher when bound to something large.
Data set [3] addresses T1, cToxR_1-134. The data set can be described thus: NMR CSP titration; mean as printed; T111 0.15 ± 4e-9, L99 0.63 ± 1e-8.
For data set [4], the target named is T1, cToxR_1-134. In words: NMR CSP titration; mean as printed; T111 14.21 ± 0.31, L99 14.78 ± 6.62.
The target in data set [5] is T1, cToxR_1-134. The data set can be described thus: NMR CSP titration; mean as printed; T111 6.82 ± 1.07, L99 5.16 ± 0.46.

T1 sequence (P15795 1-134): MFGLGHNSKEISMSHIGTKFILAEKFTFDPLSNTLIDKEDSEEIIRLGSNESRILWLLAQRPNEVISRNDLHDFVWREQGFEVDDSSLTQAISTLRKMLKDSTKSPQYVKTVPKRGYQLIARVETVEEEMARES

B1: ctx (dsDNA)
DNA 1: GATTTTTGATTTT
DNA 2: AAAATCAAAAATC
Turning to B1, the Kd (usually the constant that tells how readily two partners part at equilibrium) was determined as 28.1 µM with cToxR_1-134 [1] and 9.71 ± 0.84 µM in the data set with cToxR_1-134 [2].

B2: toxT (dsDNA)
DNA 1: CTCAAAAAACATAAAA
DNA 2: TTTTATGTTTTTTGAG
B2: the Kd with cToxR_1-134 [2] was found to be 0.66 ± 0.1 µM; with cToxR_1-134 [3], 0.35 µM.

B3: ompT (dsDNA)
DNA 1: TTTTATGGTATTTGA
DNA 2: TCAAATACCATAAAA
Regarding B3, the Kd was determined as 12.8 ± 1.27 µM with cToxR_1-134 [2] and 14.5 µM with cToxR_1-134 [4].

B4: ompU (dsDNA)
DNA 1: ATTTATATCATTTTA
DNA 2: TAAAATGATATAAAT
B4: the Kd in the data set with cToxR_1-134 [2] worked out at 5.49 ± 0.91 µM; with cToxR_1-134 [5] it was 5.99 µM.
